Measured values taken from patent US20110195494A1 (Boehringer Ingelheim, published 2011).
“And” between values parts separate entries of the source, which are not always exact repeats. Identical values can stand only once. Values belong to the binder of their own block, whether it stands above or below them.

What was measured:
[1] = target: full length mouse DLL4 on overexpressing CHO or HEK293 cells (mouse) (UniProt Q9JI71); assay: FMAT, hNotch1/Fc on CHO-mDLL4
[2] = target: full length mouse DLL4 on overexpressing CHO or HEK293 cells (mouse) (UniProt Q9JI71); assay: FMAT, hNotch1/Fc on CHO-mDLL4; remark: listed apart in the source
[3] = target: full length human DLL4 on overexpressing CHO or HEK293 cells (human) (UniProt Q9NR61); assay: cell-based or functional assay
Sequence of full length human DLL4 on overexpressing CHO or HEK293 cells (human) (Q9NR61 27-685 limits assumed): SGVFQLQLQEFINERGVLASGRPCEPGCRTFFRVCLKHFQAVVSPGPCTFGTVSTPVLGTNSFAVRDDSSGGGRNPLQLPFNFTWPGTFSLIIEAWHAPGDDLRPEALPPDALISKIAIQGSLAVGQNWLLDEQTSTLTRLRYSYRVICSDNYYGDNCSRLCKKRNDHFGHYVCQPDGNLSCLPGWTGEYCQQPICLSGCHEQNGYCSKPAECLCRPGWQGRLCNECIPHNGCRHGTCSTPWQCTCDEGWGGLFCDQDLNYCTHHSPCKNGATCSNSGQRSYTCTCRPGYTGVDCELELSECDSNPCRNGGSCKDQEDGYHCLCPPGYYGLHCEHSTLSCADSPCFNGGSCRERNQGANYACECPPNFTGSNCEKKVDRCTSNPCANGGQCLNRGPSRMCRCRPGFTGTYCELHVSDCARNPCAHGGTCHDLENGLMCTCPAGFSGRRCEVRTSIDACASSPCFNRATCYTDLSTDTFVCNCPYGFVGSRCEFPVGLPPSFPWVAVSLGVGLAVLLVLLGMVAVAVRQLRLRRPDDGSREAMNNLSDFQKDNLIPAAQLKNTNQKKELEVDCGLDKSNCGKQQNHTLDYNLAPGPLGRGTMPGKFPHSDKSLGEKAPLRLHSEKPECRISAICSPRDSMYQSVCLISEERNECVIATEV

[4] = target: recombinant human DLL4, C-terminally His-tagged extracellular domain (R&D Systems) (human) (UniProt Q9NR61); assay: cell-based or functional assay
Sequence of recombinant human DLL4, C-terminally His-tagged extracellular domain (R&D Systems) (human) (Q9NR61 25-522): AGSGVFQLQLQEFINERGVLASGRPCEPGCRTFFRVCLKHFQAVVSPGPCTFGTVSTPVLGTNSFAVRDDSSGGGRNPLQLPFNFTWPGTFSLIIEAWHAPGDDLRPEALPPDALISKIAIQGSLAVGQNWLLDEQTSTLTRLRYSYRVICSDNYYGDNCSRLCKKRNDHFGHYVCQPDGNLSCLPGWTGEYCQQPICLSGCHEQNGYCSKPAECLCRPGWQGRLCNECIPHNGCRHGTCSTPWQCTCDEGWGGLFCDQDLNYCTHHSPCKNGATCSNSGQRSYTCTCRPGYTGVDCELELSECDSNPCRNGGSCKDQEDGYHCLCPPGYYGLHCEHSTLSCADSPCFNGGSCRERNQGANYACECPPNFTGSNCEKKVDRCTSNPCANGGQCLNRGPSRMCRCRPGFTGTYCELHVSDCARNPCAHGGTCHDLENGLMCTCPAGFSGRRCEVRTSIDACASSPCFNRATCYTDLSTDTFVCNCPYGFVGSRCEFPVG

[5] = target: full length human DLL4 on overexpressing CHO or HEK293 cells (human) (UniProt Q9NR61); assay: FMAT competition, hDLL4 on cells, summary Table 21
[6] = target: recombinant human DLL4, C-terminally His-tagged extracellular domain (R&D Systems) (human) (UniProt Q9NR61); assay: hDLL4/hNotch1-Fc competition ELISA
[7] = target: recombinant human DLL4, C-terminally His-tagged extracellular domain (R&D Systems) (human) (UniProt Q9NR61); assay: affinity on hDLL4, summary Table 21 (method not named there)
[8] = target: full length human DLL4 on overexpressing CHO or HEK293 cells (human) (UniProt Q9NR61); assay: FACS on CHO-hDLL4
[9] = target: recombinant human DLL4, C-terminally His-tagged extracellular domain (R&D Systems) (human) (UniProt Q9NR61); assay: hDLL4/hNotch1-Fc competition ELISA; remark: listed apart in the source
[10] = target: recombinant human DLL4, C-terminally His-tagged extracellular domain (R&D Systems) (human) (UniProt Q9NR61); assay: SPR Biacore T100, hDLL4 on chip
[11] = target: cynomolgus DLL4 on overexpressing cells (cynomolgus (SEQ ID NO: 418 is the rhesus entry, stated 100% identical)); assay: FACS on CHO-cDLL4
Sequence of cynomolgus DLL4 on overexpressing cells (cynomolgus (SEQ ID NO: 418 is the rhesus entry, stated 100% identical)) (Q9NR61 other isoform, or with tags, fused parts or gaps limits assumed): as the sequence (Q9NR61 27-685 limits assumed) above, with I12V, T52S, N359S, L413R, N434S counted along it

[12] = target: recombinant mouse DLL4, C-terminally His-tagged extracellular domain (R&D Systems) (mouse) (UniProt Q9JI71); assay: binding ELISA, coated rmDLL4
Sequence of recombinant mouse DLL4, C-terminally His-tagged extracellular domain (R&D Systems) (mouse) (Q9JI71 27-532): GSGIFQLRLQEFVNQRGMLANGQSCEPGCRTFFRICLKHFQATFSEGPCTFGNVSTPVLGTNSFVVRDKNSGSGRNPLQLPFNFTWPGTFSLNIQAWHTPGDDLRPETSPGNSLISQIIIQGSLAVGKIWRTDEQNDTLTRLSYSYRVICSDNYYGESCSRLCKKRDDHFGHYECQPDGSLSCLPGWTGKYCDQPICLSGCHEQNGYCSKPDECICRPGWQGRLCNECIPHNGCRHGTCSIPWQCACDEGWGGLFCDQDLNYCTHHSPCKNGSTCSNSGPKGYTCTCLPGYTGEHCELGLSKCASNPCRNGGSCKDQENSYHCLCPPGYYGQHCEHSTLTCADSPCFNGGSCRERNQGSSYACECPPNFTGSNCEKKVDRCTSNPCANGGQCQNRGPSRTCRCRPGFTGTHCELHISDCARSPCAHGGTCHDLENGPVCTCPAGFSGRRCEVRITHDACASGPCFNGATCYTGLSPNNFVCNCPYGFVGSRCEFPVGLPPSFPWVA

[13] = target: recombinant human DLL4, C-terminally His-tagged extracellular domain (R&D Systems) (human) (UniProt Q9NR61); assay: binding ELISA, coated rhDLL4
[14] = target: full length human DLL4 on overexpressing CHO or HEK293 cells (human) (UniProt Q9NR61); assay: FMAT, hNotch1/Fc on CHO-hDLL4
[15] = target: recombinant human DLL4, C-terminally His-tagged extracellular domain (R&D Systems) (human) (UniProt Q9NR61); assay: SPR, rhDLL4
[16] = target: recombinant human DLL4, C-terminally His-tagged extracellular domain (R&D Systems) (human) (UniProt Q9NR61); assay: competition ELISA, summary Table 21
[17] = target: full length mouse DLL4 on overexpressing CHO or HEK293 cells (mouse) (UniProt Q9JI71); assay: FACS on CHO-mDLL4
[18] = target: full length mouse DLL4 on overexpressing CHO or HEK293 cells (mouse) (UniProt Q9JI71); assay: FMAT competition, mDLL4 on cells, summary Table 21
[19] = target: full length human DLL4 on overexpressing CHO or HEK293 cells (human) (UniProt Q9NR61); assay: FMAT, hNotch1/Fc on CHO-hDLL4; remark: listed apart in the source
[20] = target: recombinant human DLL4, C-terminally His-tagged extracellular domain (R&D Systems) (human) (UniProt Q9NR61); assay: hDLL4/hNotch1-Fc competition AlphaScreen
[21] = target: T1, full length mouse DLL4 on overexpressing CHO or HEK293 cells (mouse, UniProt Q9JI71 27-686); assay: FMAT, hNotch1/Fc on CHO-mDLL4, periplasmic extract
T1 construct: whole, on cells; also called CHO-mDLL4; mDLL4
T1 sequence (Q9JI71 27-686): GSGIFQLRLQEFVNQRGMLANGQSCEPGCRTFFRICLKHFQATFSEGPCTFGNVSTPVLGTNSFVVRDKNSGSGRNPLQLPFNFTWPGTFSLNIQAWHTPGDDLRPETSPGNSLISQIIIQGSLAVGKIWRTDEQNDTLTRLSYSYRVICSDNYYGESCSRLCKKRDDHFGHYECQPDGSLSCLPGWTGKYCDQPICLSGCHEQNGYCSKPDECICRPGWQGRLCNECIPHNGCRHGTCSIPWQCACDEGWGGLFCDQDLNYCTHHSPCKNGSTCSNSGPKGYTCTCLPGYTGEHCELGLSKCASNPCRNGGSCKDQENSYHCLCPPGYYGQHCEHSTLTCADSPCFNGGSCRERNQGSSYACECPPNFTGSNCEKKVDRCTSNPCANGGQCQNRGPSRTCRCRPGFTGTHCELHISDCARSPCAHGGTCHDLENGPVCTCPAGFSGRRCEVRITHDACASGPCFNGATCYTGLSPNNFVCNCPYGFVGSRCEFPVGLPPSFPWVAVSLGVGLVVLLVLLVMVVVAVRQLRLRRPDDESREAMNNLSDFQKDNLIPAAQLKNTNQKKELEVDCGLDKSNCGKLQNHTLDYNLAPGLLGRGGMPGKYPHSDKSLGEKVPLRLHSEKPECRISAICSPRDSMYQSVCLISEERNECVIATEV
From the text: (§1) All calculations are based on the FL1 total signal which comprises the average of the fluorescence per well times the number of counts per well.

[22] = target: T1, full length mouse DLL4 on …; assay: FACS on HEK293-mDLL4 cells
Description: In order to determine the cynomologus cross-reactivity of the VHHs, a FACS binding experiment is performed. Cynomolgus DII4 expressing HEK293 cells (transient or stable transfection) are used for a titration binding experiment of the VHHs. After a 30 minutes incubation on ice, all samples are washed and detection is performed by applying anti-c-myc˜Alexa647 (Santa Cruz Biotechnology, Santa Cruz, Calif., USA). Human and mouse DII4 overexpressing HEK293 cells are taken as reference. The mean MCF value is determined on the FACS Array and used for calculation of the EC₅₀ value (see FIG. 9).

[23] = target: T2, full length human DLL4 on overexpressing CHO or HEK293 cells (human, UniProt Q9NR61 27-685); assay: FMAT, hNotch1/Fc on CHO-hDLL4, periplasmic extract
T2 construct: also called CHO-hDLL4; HEK293-hDII4
T2 sequence (Q9NR61 27-685 limits assumed): as the sequence (Q9NR61 27-685 limits assumed) above
From the text: as §1

Sequence of full length mouse DLL4 on overexpressing CHO or HEK293 cells (mouse) (Q9JI71 27-686): as the sequence (Q9JI71 27-686) above

IC50 [1]: 2.3 nM | IC50 [2]: 3 nM and 1.6 nM | IC50, DLL4/Notch1 reporter assay [3]: 133 nM | IC50 (nM) (experiment 1), DLL4 proliferation assay (HUVEC) [4]: 4.9 nM | IC50 (nM) (experiment 2), DLL4 proliferation assay (HUVEC) [4]: 5.6 nM | IC50 [5]: 5.5 nM and 3.4 nM | IC50 [6]: 0.7 nM | Kd [7]: 1.5 nM | EC50 [8]: 5.6 nM | IC50 [9]: 1.5 nM and 1.2 nM | Kd [10]: 1.5 nM | koff [10]: 0.00034 s⁻¹ | kon [10]: 230000 M⁻¹ s⁻¹ | EC50 [11]: 2.5 nM | EC50 [12]: 3 nM | EC50 (read off the curve) [12]: 0.9 nM | EC50 [13]: 3 nM | EC50 (read off the curve) [13]: 0.8 nM | IC50 [14]: 5.4 nM | Kd [15]: 1.5 nM | koff [15]: 0.00034 s⁻¹ | kon [15]: 230000 M⁻¹ s⁻¹ | IC50 [16]: 1.5 nM and 1.2 nM | EC50 [17]: 2.1 nM | IC50 [18]: 3 nM and 1.6 nM | IC50 [19]: 5.5 nM and 3.4 nM | IC50 [20]: 0.3 nM
B1: anti-DLL4 Fab fragment (of the Genentech anti-DLL4 mAb of US 2008/0014196) (Fab)
heavy: EVQLVESGGGLVQPGGSLRLSCAASGFTFTDNWISWVRQAPGKGLEWVGYISPNSGFTYYADSVKGRFTISADTSKNTAYLQMNSLRAEDTAVYYCARDNFGGYFDYWGQGTLVTVSS
light: DIQMTQSPSSLSASVGDRVTITCRASQDVSTAVAWYQQKPGKAPKLLIYSASFLYSGVPSRFSGSGSGTDFTLTISSLQPEDFATTYYCQQSYTGTVTFGQGTKVEIK

FMAT mDLL4 % inhibition [21]: 92% | EC50 (read off the curve) [22]: 37 to 40 nM | FMAT hDLL4 % inhibition [23]: 91%
B2: DLLBII101G08 (VHH)
VHH: EVQLVESGGGLVQAGGSLRLSCAASGRTFSSYAMAWFRQAPGKEREFVAAIRWSGGTAYYADSVQGRFTISRDNAKNTVYLQMNSLKPEDTAVYYCANRAADTRLGPYEYDYWGQGTQVTVSS
notes: also called DLLBII101G8; 101G8; not shown: C-terminal c-myc tag and His6 tag
